Laboratory results from patent US20140249468.

Measured: fluorescence activation (recovery of Cy5.5 fluorescence on cleavage)

activated recombinant human MMP-13
>25-fold vs. without MMP: MMP-P4 | MMP-P0 | MMP-P24 | MMP-P12 | MMP-P67
